Legend:
Experiment in all cases: DELFIA ELISA, coated antigen;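 further: binding of antibody supernatants or protein-A purified antibodies to plate-coated antigen (3 µg/ml recombinant TCR or BSA), 1 h incubation at room temperature, DELFIA readout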
[1] = target: L2 (DV1-GV2), soluble leucine zipper γδ TCR heterodimer of a delta variable 1 chain and a gamma variable 2 … (human)
Experimental: (§1) A DELFIA ELISA binding method was also employed to assess binding of antibody supernatants or further protein-A purified antibody. In brief, MaxiSorp plates were coated with 3 μg/ml of antigen BSA or L1 (DV1-GV4), L2 (DV1-GV2), L3 (DV1-GV8), or L4 (DV2-GV4) recombinant TCR antigen. Plates were then washed with PBS, blocked with PBS/skimmed milk and then test article added and incubated for 1 hour at room temperature.

[2] = target: T1, L1 (DV1-GV4), soluble leucine zipper γδ TCR heterodimer of a delta variable 1 chain and a gamma variable 4 … (human)
T1 construct: also called bt-L1; not shown: histidine tag/linker said to follow the zipper
T1 sequence (main, as listed by the source, chain 1 of 2): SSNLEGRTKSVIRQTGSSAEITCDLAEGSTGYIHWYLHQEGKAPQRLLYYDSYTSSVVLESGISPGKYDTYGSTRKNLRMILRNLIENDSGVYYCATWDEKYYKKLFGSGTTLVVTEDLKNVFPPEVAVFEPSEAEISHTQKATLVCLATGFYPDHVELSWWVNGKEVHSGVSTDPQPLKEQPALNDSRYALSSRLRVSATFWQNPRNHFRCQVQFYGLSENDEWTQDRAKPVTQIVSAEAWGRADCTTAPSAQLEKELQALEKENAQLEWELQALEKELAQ
T1 sequence (main, as listed by the source, chain 2 of 2): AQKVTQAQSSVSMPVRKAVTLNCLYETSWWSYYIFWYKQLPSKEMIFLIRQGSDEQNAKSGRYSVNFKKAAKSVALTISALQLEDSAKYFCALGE

[3] = target: T2, BSA (bovine, UniProt P02769)
T2 construct: coated at 3 µg/ml; also called bovine serum albumin, control antigen of the DELFIA ELISA
T2 sequence (P02769 25-607 limits assumed): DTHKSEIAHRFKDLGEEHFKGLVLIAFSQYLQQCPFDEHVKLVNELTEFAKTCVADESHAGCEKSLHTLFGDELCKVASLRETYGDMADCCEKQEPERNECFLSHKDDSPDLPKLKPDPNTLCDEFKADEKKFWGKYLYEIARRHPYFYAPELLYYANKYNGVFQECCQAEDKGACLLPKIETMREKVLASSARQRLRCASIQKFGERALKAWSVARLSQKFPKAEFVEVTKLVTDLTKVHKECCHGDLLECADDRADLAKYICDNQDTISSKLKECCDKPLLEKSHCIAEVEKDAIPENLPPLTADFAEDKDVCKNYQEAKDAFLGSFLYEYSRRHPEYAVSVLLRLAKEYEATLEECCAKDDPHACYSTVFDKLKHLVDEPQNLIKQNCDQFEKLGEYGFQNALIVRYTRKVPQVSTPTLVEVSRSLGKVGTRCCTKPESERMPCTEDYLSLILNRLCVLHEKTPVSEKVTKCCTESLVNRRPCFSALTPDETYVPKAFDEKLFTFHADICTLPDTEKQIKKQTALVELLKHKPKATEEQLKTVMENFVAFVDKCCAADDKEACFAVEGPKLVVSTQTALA
Experimental: as §1

[4] = target: L3 (DV1-GV8), soluble leucine zipper γδ TCR heterodimer of a delta variable 1 chain and a gamma variable 8 … (human)
Chain of L3 (DV1-GV8), soluble leucine zipper γδ TCR heterodimer of a delta variable 1 chain and a gamma variable 8 … (human) (chain, as listed by the source mutant, chain 1 of 2): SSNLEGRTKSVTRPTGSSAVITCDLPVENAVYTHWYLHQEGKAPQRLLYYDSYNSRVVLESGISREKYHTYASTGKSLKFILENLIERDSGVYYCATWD
Chain of L3 (DV1-GV8), soluble leucine zipper γδ TCR heterodimer of a delta variable 1 chain and a gamma variable 8 … (human) (chain, as listed by the source mutant, chain 2 of 2): as the sequence (main, as listed by the source, chain 2 of 2) above
Experimental: as §1

Chain of L2 (DV1-GV2), soluble leucine zipper γδ TCR heterodimer of a delta variable 1 chain and a gamma variable 2 … (human) (chain, as listed by the source mutant, chain 1 of 2): as the sequence (main, as listed by the source, chain 1 of 2) above, with T30N, L48Q, T54N, S56K, I63V, D69Y, G72A, K76N, M80L counted along it
Chain of L2 (DV1-GV2), soluble leucine zipper γδ TCR heterodimer of a delta variable 1 chain and a gamma variable 2 … (human) (chain, as listed by the source mutant, chain 2 of 2): as the sequence (main, as listed by the source, chain 2 of 2) above

Binder | DELFIA ELISA response (FU) [1] | DELFIA ELISA response (FU) [2] | DELFIA ELISA response (FU) [3] | binding result [3] | DELFIA ELISA response (FU) [4]
G4_4 (antibody, human IgG1, V domains shown, also called clone G4_4) VH: QVQLVESGGGLVQPGGSLRLSCAASGFTFSSYAMSWVRQAPGKGLEWVSAISGSGGSTYYADSVKGRFTISRDNSKNTLYLQMSSLRVEDTAVYYCAKSSVGWWSFDYWGQGTMVTVSS VL: not shown | 90 FU |  |  |  | 190 FU
G4_13 (antibody, human IgG1, V domains shown, also called clone G4_13) VH: QVQLVESGAEVKKPGGSLRLSCAASGFTFSSYSMNWVRQAPGKGLEWVSSISGTSSYIYYADSVKGRFTISRDNAKNSLYLQMSSLRAEDTAVYYCARGGLGMVDPWGQGTLVTVSS VL: SNFMLTQPHSVSESPGKTVTISCTRSSGSIASNYVQWYQQRPGSSPSTVIYEDNQRPSGVPDRFSGSIDSSSNSASLTISGLRTEDEADYYCQSYDSSIYVVFGGGTKLTVLG | 94 FU | 196000 FU | 78 FU | no binding | 270 FU
G4_1 (antibody, human IgG1, V domains shown, also called clone G4_1) VH: EVQLLESGGGVVQPGRPLRLSCAASGFTFSSYSMNWVRQAPGKGLEWVSSISSSSSYIYYADSVKGRFTISRDNSKNTLYLQMNSLRAEDTAVYYCAKGHWYFDLWGRGTLVTVSS VL: DIQMTQSPSSLSASVGDRVTITCQASQDISNYLNWYQQKPGKAPKLLIYDASNLETGVPSRFSGSGSGTDFTLTISSLQPEDFATYYCQQSYSTPVTFGPGTKVEIKR | 100 FU | 202000 FU | 78 FU | no binding | 244 FU
G4_5 (antibody, V domains shown, also called clone G4_5) VH: EVQLVQSGAEVKKPGSSVKVSCKASGYTFTSYGISWVRQAPGQGLEWMGWIGAYNGNTNYAQKLQGRVTMSTDTSTSTAYMELRSPRSDDTAVYYCARGGTGGDHVFAYWGQGTTVTVSS VL: not shown |  | 163000 FU | 86 FU | no binding | 
G4_14 (antibody, human IgG1, V domains shown, also called clone G4_14) VH: EVQLVQSGAEVKKPGESLRISCKGSGYSFTSYWISWVRQMPGKGLEWMGRIDPSDSYTNYSPSFPGHVTISADKSISTAYLQWSSLKASDTAMYYCAADTAHGMDVWGRGTLVTVSS VL: SNFMLTQPHSVSESPGKTVTISCTRSRGSIAGNYVHWYQQRPGRAPTTVIYRDKERPSGVPDRISGSIDSSSNSASLTISGLKTEDEADYYCQSYDSSTHVVFGGGTKLTVLG | 199 FU | 208000 FU | 135 FU | no binding | 229 FU

The next lines start with the values.

DELFIA ELISA response (FU) [1] | DELFIA ELISA response (FU) [2] | DELFIA ELISA response (FU) [3] | binding result [3] | DELFIA ELISA response (FU) [4] | Binder
84 FU | 178000 FU | 69 FU | no binding | 118 FU | G4_16 (antibody, human IgG1, V domains shown, also called 1248_P02_D10; clone G4_16) VH: EVQLLESGAEVKKPGASVKVSCKASGYTFTSYGISWVRQAPGQGLEWMGWISAYNGNTNYAQKLQGRVTMTTDTSTSTAYMELRSLRSDDTAVYYCARDYGDFYGMDVWGQGTLVTVSS VL: SQSVLTQPPSASGSPGQSVTFSCTGTSSDIGAFNSVSWYQQHPGKAPKLLIYEITKRPSGVPDRFSGSKSGNTASLTISVLQAEDEADYYCTSYAGSNTLIFGGGTKVTVLG
534 FU | 154000 FU | 53 FU | no binding | 960 FU | G4_24 (antibody, human IgG1, V domains shown, also called clone G4_24) VH: QVQLQQSGPGLVKPSQTLSLTCAISGASVSSNSVAWNWIRQSPSRGLEWLGRTYYRSRWYNDYALSVKSRIIINPDTSKNQFSLQLNSVTPEDTAVYYCARDWSSTRSFDYWGRGTLVTVSS VL: not shown
844 FU | 119000 FU | 63 FU | no binding | 156 FU | G4_15 (antibody, human IgG1, V domains shown, also called clone G4_15) VH: EVQLVQSEAEVKKPGASVKVSCKASGYTFTRHYMHWVRQAPGQGLEWMGLINPSGSSTVYAQKFQGRVTLTRDTSTSTDYMELSSLRSEDTAVYYCARDNSHLDQVWWFDPWGQGTLVTVSS VL: SQSALTQPASVSGSPGQSITISCTGTSSDVGGYNYVSWYQQHPGKAPKLMIYDVSNRPSGVSNRFSGSKSGNTASLTISGLQAEDEADYYCSSYGSGSVFGTGTKLTVLG
680 FU | 22800 FU | 51 FU | no binding | 870 FU | G4_26 (antibody, human IgG1, V domains shown, also called clone G4_26) VH: QVQLVQSGAEVKKPGSSVKVSCKASGGTFSSYAISWVRQAPGQGLEWMGGIIPIFGTANYAQKFQGRVTITADESTSTAYMELSSLRSEDTAVYYCASSRGSGWFPLGYWGQGTLVTVSS VL: SQSGLTQPASVSGSPGQSITISCTGTSSDVGSYNLVSWYQQHPGKAPKLMIYEVSKRPSGVSNRFSGSKSGNTASLTISGLQAEDEADYYCSSFGSGSIFGTGTKLTVLG
486 FU | 21700 FU | 40 FU | no binding | 885 FU | G4_25 (antibody, human IgG1, V domains shown, also called clone G4_25) VH: EVQLVESGAEVKKPGSSVKVSCKASGGTFSSYAISWVRQAPGQGLEWMGGIIPIFGTANYAQKFQGRVTITADKSTSTAYMELSSLRSEDTAVYYCARSLRDGYNYIGSLGYWGQGTLVTVSS VL: SQSALTQPRSVSGSPGQSVTISCTGTSSDVGGYNYVSWYQQHPGKAPKLMIYEVSNRPSGVSNRFSGSKSGNTASLTISGLQAEDEADYYCSSYGSGSVFGTGTKLTVLG
73 FU | 142000 FU | 55 FU | no binding | 192 FU | G4_19 (antibody, human IgG1, V domains shown, also called clone G4_19) VH: EVQLVQSGAEVKKPGASVKVSCKASGYTLTSYYMHWVRQAPGQGLEWMGIINPSGGSTSYAQKFQGRVTMTRDTSTSTVYMELSSLRSEDTAVYYCARERGYSYGDGMDVWGQGTTVTVSS VL: SNFMLTQPHSVSESPGKTVTISCTRSSGSIASNYVQWYQQRPGSPPITLIYDDDQRPSGVPHRFSGSIDTSSNPASLTISGLKTEDEADYYCQSYDSSNHVVFGGGTKLTVLG
567 FU | 109000 FU | 47 FU | no binding | 980 FU | G4_22 (antibody, human IgG1, V domains shown, also called clone G4_22) VH: QVQLVESGGGLVQPGGSLRLSCAASGFTFSTYAMSWVRQAPGKGLEWVSTVSGSGGTTYYADSVKGRFTISRDNSKNTLYLQMNSLRAEDTAVYYCAKDSTAVTDWFDPWGRGTLVTVSS VL: DIQMTQSPSSLSASVGDRVTITCQASQDISNYLNWYQQKPGKAPKLLIYAASSLQSGVPSRFSVSGSGTDFTLTISNLQPEDFATYYCQQSYSIPWTFGQGTKVEIKR
576 FU | 227000 FU | 65 FU | no binding | 984 FU | G4_28 (antibody, human IgG1, V domains shown, also called clone G4_28) VH: QVQLVESGGGLVQPGGSLRLSCAASGFTFDDYAMHWVRQAPGKGLEWVSGISAGGGSTNYAGSVKGRFTVSRDTSKNTLYLQMNSLRAEDTAVYYCVKSYVDTAMRYYYYYMDVWGQGTMVTVSS VL: SSYELTQDPAVSVALGQTVTITCQGDSLRNYYASWYRQKPGQTPVLVVYGKNNRPSGIPDRFSVSASGNTASLTITGAQAEDEGDYYCNSRDSSGVVFGGGTKVTVLG
